# According to PMC10580950:
# How the values were obtained:
# [1] = tested on: OxyR (Streptomyces gilvosporeus F607); assay: MST; conditions: EMSA: 20 mM Tris pH 7.5, 60 mM KCl, 2 mM EDTA, 0.5 mM DTT, 4% Ficoll, 1 ug poly(dI-dC), 20 uL, 15-25 C, 30 min, MST: 50 mM HEPES pH 7.4, 0.05% Tween 20, room …
# [2] = tested on: OxyR C212D (mimic of overoxidized OxyR) (Streptomyces gilvosporeus F607); assay: MST; conditions: overoxidized OxyR (C212D mimic per Results); EMSA: 20 mM Tris pH 7.5, 60 mM KCl, 2 mM EDTA, 0.5 mM DTT, 4% Ficoll, 1 ug poly(dI-dC), 20 uL, 15-25 C, 30 min; MST: 50 mM HEPES pH 7.4, 0.05% Tween 20, room …
substance,measurement,setting,value
psgnM (redox EMSA and MST),Kd,[1]; oxidized OxyR (H2O2),45.9 nM
same,Kd,[1]; reduced OxyR (DTT),135 nM
same,Kd,[2],324 nM
